From US20210363259A1 (Biogen, published 2021)

Legend:
[1] = biological target: T1, integrin αvβ6 (human, UniProt P06756 31-1048; P18564 22-788); assay: potency assay, binding relative to reference standard; stability sample, 6 months at 2-8° C.
T1 construct: also called the antigen

[2] = biological target: T1, integrin αvβ6; assay: DELFIA blocking assay, binding relative to reference standard; stability sample, 0 months at 2-8° C.
[3] = biological target: T1, integrin αvβ6; assay: DELFIA blocking assay, binding relative to reference standard; stability sample, 1 month at 2-8° C.
[4] = biological target: T1, integrin αvβ6; assay: potency assay, binding relative to reference standard; stability sample, 12 months at 2-8° C.
[5] = biological target: T1, integrin αvβ6; assay: potency assay, binding relative to reference standard; stability sample, 9 months at 2-8° C.
[6] = biological target: T1, integrin αvβ6; assay: potency assay, binding relative to reference standard; stability sample, 3 months at 2-8° C.
[7] = biological target: T1, integrin αvβ6; assay: potency assay, binding relative to reference standard; stability sample, 24 months at 2-8° C.
[8] = biological target: T1, integrin αvβ6; assay: DELFIA blocking assay, binding relative to reference standard; stability sample, 18 months at 2-8° C.

T1 sequence (P06756 31-1048, chain 1 of 2): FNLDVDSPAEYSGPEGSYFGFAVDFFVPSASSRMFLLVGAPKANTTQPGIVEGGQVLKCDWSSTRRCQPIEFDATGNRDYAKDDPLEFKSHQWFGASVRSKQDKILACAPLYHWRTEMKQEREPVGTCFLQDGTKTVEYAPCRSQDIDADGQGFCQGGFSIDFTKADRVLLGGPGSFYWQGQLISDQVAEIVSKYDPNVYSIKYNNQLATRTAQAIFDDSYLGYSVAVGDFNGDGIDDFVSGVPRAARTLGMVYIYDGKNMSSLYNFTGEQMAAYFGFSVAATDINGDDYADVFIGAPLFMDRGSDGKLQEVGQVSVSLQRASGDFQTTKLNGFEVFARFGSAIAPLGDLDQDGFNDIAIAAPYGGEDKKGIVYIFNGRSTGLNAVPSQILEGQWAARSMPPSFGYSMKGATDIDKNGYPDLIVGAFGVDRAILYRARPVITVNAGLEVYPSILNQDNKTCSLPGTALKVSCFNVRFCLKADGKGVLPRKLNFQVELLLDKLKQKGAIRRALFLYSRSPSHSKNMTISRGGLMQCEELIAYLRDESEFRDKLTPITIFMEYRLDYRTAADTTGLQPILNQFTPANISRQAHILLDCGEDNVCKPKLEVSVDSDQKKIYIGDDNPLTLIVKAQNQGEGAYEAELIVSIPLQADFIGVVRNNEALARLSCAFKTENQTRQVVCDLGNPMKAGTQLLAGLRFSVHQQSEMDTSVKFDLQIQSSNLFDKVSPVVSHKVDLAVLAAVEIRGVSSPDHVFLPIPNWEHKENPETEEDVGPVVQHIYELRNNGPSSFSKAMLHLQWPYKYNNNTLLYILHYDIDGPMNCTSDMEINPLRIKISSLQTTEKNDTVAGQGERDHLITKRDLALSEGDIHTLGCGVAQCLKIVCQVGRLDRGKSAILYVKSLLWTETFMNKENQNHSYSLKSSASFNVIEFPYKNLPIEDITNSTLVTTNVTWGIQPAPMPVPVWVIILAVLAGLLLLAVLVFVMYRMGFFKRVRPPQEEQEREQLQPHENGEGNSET
T1 sequence (P18564 22-788, chain 2 of 2): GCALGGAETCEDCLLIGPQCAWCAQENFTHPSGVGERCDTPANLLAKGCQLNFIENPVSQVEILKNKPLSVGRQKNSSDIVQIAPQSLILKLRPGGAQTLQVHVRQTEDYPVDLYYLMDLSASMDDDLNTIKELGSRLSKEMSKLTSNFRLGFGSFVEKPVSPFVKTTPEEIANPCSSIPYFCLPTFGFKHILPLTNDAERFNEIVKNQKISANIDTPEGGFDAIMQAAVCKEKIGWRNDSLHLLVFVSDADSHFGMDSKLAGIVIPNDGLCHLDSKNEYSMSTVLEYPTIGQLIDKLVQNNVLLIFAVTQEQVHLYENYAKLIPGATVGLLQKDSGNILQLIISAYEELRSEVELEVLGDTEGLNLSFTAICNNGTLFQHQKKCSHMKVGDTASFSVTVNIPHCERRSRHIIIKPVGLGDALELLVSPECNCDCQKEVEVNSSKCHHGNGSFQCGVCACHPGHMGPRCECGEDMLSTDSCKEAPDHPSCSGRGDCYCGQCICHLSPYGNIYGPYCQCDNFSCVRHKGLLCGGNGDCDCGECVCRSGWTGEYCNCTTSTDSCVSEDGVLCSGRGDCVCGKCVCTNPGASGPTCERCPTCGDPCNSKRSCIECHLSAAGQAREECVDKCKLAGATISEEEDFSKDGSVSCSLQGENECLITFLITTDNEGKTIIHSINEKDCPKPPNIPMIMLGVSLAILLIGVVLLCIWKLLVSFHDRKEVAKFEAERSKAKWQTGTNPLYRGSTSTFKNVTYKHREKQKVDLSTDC

B1: STX-100 (antibody, human IgG1, kappa, V domains shown)
VH: EVQLVESGGGLVQPGGSLRLSCAASGFTFSRYVMSWVRQAPGKGLEWVASISSGGRMYYPDTVKGRFTISRDNAKNSLYLQMNSLRAEDTAVYYCARGSIYDGYYVFPYWGQGTLVTVSS
VL: EIVLTQSPATLSLSPGERATLSCSASSSVSSSYLYWYQQKPGQAPRLLIYSTSNLASGIPARFSGSGSGTDFTLTISSLEPEDFAVYYCHQWSTYPPTFGGGTKVEIKR
notes: Humanized human IgG1/human kappa monoclonal antibody; It was tested as drug product in citrate/arginine/methionine/PS80 formulations; also called BG00011; BG11
- Potency, % Binding relative to Reference Standard [1]: 98%
- DELFIA Blocking - Binding relative to Reference Standard [2]: 101%
- DELFIA Blocking - Binding relative to Reference Standard [3]: 100%
- Potency, % Binding relative to Reference Standard [4]: 100%
- Potency, % Binding relative to Reference Standard [5]: 95%
- Potency, % Binding relative to Reference Standard [6]: 102%
- Potency, % Binding relative to Reference Standard [7]: 106%
- DELFIA Blocking - Binding relative to Reference Standard [8]: 96%
